# Measurements published in patent US12397037B2, “Methods and compositions for immunomodulation” (CHILDREN'S MEDICAL CENTER CORPORATION, priority 2014, dated 2025).
# B1: SEMA3F: Human recombinant full-length His-Myc-tagged SEMA3F, secreted by transfected 293T cells and purified; class 3 semaphorin, NRP-2 ligand (protein, listed as Homo sapiens)
# chain: MLVAGLLLWASLLTGAWPSFPTQDHLPATPRVRLSFKELKATGTAHFFNFLLNTTDYRILLKDEDHDRMYVGSKDYVLSLDLHDINREPLIIHWAASPQRIEECVLSGKDVNGECGNFVRLIQPWNRTHLYVCGTGAYNPMCTYVNRGRRAQATPWTQTQAVRGRGSRATDGALRPMPTAPRQDYIFYLEPERLESGKGKCPYDPKLDTASALINEELYAGVYIDFMGTDAAIFRTLGKQTAMRTDQYNSRWLNDPSFIHAELIPDSAERNDDKLYFFFRERSAEAPQSPAVYARIGRICLNDDGGHCCLVNKWSTFLKARLVCSVPGEDGIETHFDELQDVFVQQTQDVRNPVIYAVFTSSGSVFRGSAVCVYSMADIRMVFNGPFAHKEGPNYQWMPFSGKMPYPRPGTCPGGTFTPSMKSTKDYPDEVINFMRSHPLMYQAVYPLQRRPLVVRTGAPYRLTTIAVDQVDAADGRYEVLFLGTDRGTVQKVIVLPKDDQELEELMLEEVEVFKDPAPVKTMTISSKRQQLYVASAVGVTHLSLHRCQAYGAACADCCLARDPYCAWDGQACSRYTASSKRRSRRQDVRHGNPIRQCRGFNSNANKNAVESVQYGVAGSAAFLECQPRSPQATVKWLFQRDPGDRRREIRAEDRFLRTEQGLLLRALQLSDRGLYSCTATENNFKHVVTRVQLHVLGRDAVHAALFPPLSMSAPPPPGAGPPTPPYQELAQLLAQPEVGLIHQYCQGYWRHVPPSPREAPGAPRSPEPQDQKKPRNRRHHPPDT
# modifications: His-Myc tag
# notes: Human recombinant full-length His-Myc-tagged SEMA3F, secreted by transfected 293T cells and purified; class 3 semaphorin, NRP-2 ligand
# Experiments:
# RhoA = RhoA activity, rhotekin pull-down, U87MG cells; format: cell-based, human; conditions: SEMA3F 640 ng/ml, 10 minutes
# Description: FIG. 30A depicts U87MG cells treated with SEMA3F (640 ng/ml), rapamycin (10 nM) or Torin 1 (10 nM) for 30 minutes. Subsequently, cells were stained with Alexa Fluor 488 phalloidin and Hoechst 33342 to identify F-actin cytoskeleton stress fibers and cellular nuclei, respectively. […] The scale bar indicates 20 μm. FIG. 30B depicts U87MG cells transiently transfected with a pcDNA3.1 empty vector or with a wild type (WT) mTOR plasmid and after 18 hours treated with SEMA3F (640 ng/ml) for 30 minutes. Cells were stained as described above in FIG. 30A. Representative cellular staining is shown; bar graph represents the number of fibers/cell (mean±SD) from 3 independent experiments. FIG. 30C depicts U87MG cells transfected with control siRNA or with raptor- or rictor-specific siRNAs (20 nM). […] The number of stress fibers was evaluated in 3 independent experiments and shown as the mean±SD. […] After 18 hours, the cells were treated with SEMA3F (640 ng/ml) for 10 minutes and RhoA activity was evaluated. FIG. 30E depicts U87MG cells transfected with control siRNA or with raptor- or rictor-specific siRNAs (20 nM), were treated with SEMA3F (640 ng/ml) for 10 minutes and RhoA activity was analyzed. […]
# RhoA activity (39) was measured using the rhotekin pulldown assay in U87MG cells transfected with the mTOR overexpression construct (FIG. 30D). […]
# [1] = tested on: C57BL/6 recipients of fully mismatched BALB/c cardiac allografts; test: Fully MHC mismatched cardiac allograft survival (BALB/c into C57BL/6); format: in vivo, mice; conditions: for mean graft survival: untreated controls 6.5 days
# From the text: FIG. 2 depicts graft survival curves. Cardiac allografts (Balb/c) were transplanted into fully MHC mismatched recipients (C57BL/6). Unmanipulated recipients reject these allografts within 7-8 days.
# FIG. 3 depicts graft survival curves. Cardiac allografts (Balb/c) were transplanted into fully MHC mismatched recipients (C57BL/6). Unmanipulated recipients reject these allografts within 7-8 days.
# FIG. 4 depicts graft survival curves of C56BL6 recipient mice after transplantation with Balb/C donor hearts.
# Described herein is the treatment of C57BL/6 recipients of fully mismatched BALB/c cardiac allografts with Sema3F.
# Ba1b/C donor hearts were transplanted into C56BL6 mice.
# U87MG cells [2] = test: Western blot of PI-3K/Akt-mTOR and MAPK signaling in U87MG cells; format: cell-based, human
# Description: U87MG which express NRP-2 were used for this assay.
# To determine the effect of SEMA3F on intracellular signaling responses, levels of phosphokinases in the NRP2-expressing human glioblastoma cell line U87MG were profiled.
# Western blotting: Proteins within each sample were separated by SDS-PAGE and transferred to nitrocellulose membranes. The membranes were blocked with 4% skimmed milk in TBS-T (0.1% Tween 20 in tris-buffered saline [TBS]) for 30 minutes, followed by incubation with the primary antibody. After washing with TBS-T, membranes were incubated with the appropriate horseradish peroxidase-conjugated secondary antibody, and immunoreactivity was detected by using ECL detection reagents.
# U87MG cells [3] = test: F-actin stress fiber staining (phalloidin) in U87MG cells; format: cell-based, human
# Description: FIG. 30A depicts U87MG cells treated with SEMA3F (640 ng/ml), rapamycin (10 nM) or Torin 1 (10 nM) for 30 minutes. Subsequently, cells were stained with Alexa Fluor 488 phalloidin and Hoechst 33342 to identify F-actin cytoskeleton stress fibers and cellular nuclei, respectively. […] The scale bar indicates 20 μm. FIG. 30B depicts U87MG cells transiently transfected with a pcDNA3.1 empty vector or with a wild type (WT) mTOR plasmid and after 18 hours treated with SEMA3F (640 ng/ml) for 30 minutes. Cells were stained as described above in FIG. 30A. Representative cellular staining is shown; bar graph represents the number of fibers/cell (mean±SD) from 3 independent experiments. FIG. 30C depicts U87MG cells transfected with control siRNA or with raptor- or rictor-specific siRNAs (20 nM). After 48 hours, they were treated with SEMA3F for 30 minutes and stained with Alexa Fluor 488 phalloidin and Hoechst 33342 as above. The number of stress fibers was evaluated in 3 independent experiments and shown as the mean±SD. FIG. 30D depicts U87MG cells transiently transfected with pcDNA3.1 empty vector or with our WT mTOR plasmid. After 18 hours, the cells were treated with SEMA3F (640 ng/ml) for 10 minutes and RhoA activity was evaluated. FIG. 30E depicts U87MG cells transfected with control siRNA or with raptor- or rictor-specific siRNAs (20 nM), were treated with SEMA3F (640 ng/ml) for 10 minutes and RhoA activity was analyzed. In FIGS. 30D-30E, the intensity of active RhoA was normalized to respective total RhoA; the numbers below each gel lane represent the fold-change in intensity relative to control. FIGS. 30D-30E are representative of 3 independent experiments.
# mTORC2 links SEMA3F biology with the F-actin cytoskeleton. It was next determined whether the inhibition of mTORC2 serves as an intermediary response to link SEMA3F activity with cytoskeletal collapse. U87MG cells were treated either with SEMA3F (640 ng/ml), rapamycin (10 nM) or Torin 1 (10 nM) for 30 minutes and the actin cytoskeleton was visualized using phalloidin staining. […] These findings indicate that SEMA3F has minimal direct effects on mTORC1.
# F-actin staining: Cells were fixed with 4% paraformaldehyde (PFA) followed by permeabilization with 0.2% Triton X-100 in PBS. F-actin and nuclei were stained with Alexa Fluor 488 phalloidin and Hoechst 33342, respectively. Confocal images from 3-5 areas of each culture were reviewed and stress fibers were counted in representative individual cells (˜5/experiment) using standard methodology as described6.
# [4] = U87MG cells, 640 ng/ml time course
molecule,measurement,setting,value
B1,RhoA activity partially rescued (by),RhoA; U87MG cells overexpressing mTOR,55%
same,suppression of RhoA activity,RhoA; control pcDNA3.1-transfected U87MG cells,88%
same,rejection in NRP-2KO mice,[1]; NRP-2KO recipients,can inhibit rejection
same,mean graft survival,"[1]; Sema3F administered via adenovirus, n=4 mice",> 22 days
same,mean graft survival,"[1]; Sema3F administered via i.p. injection, n=16 mice",23.4 days
same,"CD3, CD4, CD8 and Treg populations by FACS","[1]; day 5 post transplantation, mice of FIG. 2 (adenovirus)",no differences are observed
same,pSGK1 (S422) and pPKC (S657),U87MG cells [2]; U87MG cells,inhibited
same,pS6K and pS6 in 2DAkt transfected cells,"U87MG cells [2]; U87MG cells transfected with constitutively active Akt (2DAkt), SEMA3F 640 ng/ml",no change in expression
same,persistence of inhibitory effect,U87MG cells [2]; [4],greater than 60 minutes
same,"time within which pAkt (T308 and S473), pmTOR, pS6K and pS6 were inhibited",U87MG cells [2]; [4],10-20 minutes
same,pAkt (S473) in 2DAkt transfectants,"U87MG cells [2]; U87MG cells, SEMA3F 640 ng/ml",reduced the level of pAkt (S473)
same,pAkt (T308 and S473) and pS6K,"U87MG cells [2]; U87MG cells, SEMA3F 640 ng/ml for 60 minutes vs untreated",reduced levels of pAkt (T308 and S473) and pS6K
same,inhibition of expression of pAkt (S473) (densitometry),"U87MG cells [2]; U87MG cells, SEMA3F ~640 ng/mL, after 10 min",> 80%
same,pAkt and pS6K after rapamycin pretreatment,"U87MG cells [2]; U87MG cells, rapamycin 30 minutes, then SEMA3F and rapamycin for 60 minutes",reduced levels of both pAkt and pS6K
same,"pAkt, pS6K and pS6 in NRP2 and Plexin A1-siRNA transfected cells","U87MG cells [2]; U87MG cells, siRNA 20 nM, SEMA3F 640 ng/ml",failed to inhibit
same,concentration at which peak effects were observed,"U87MG cells [2]; U87MG cells, signaling",~600 ng/mL
same,expression of pERK1/2,"U87MG cells [2]; U87MG cells, ~640 ng/mL",markedly reduced
same,time of peak effect on pERK1/2,"U87MG cells [2]; U87MG cells, ~640 ng/mL",≤ 30 mins
same,"pAkt (S473), pAkt (T308), pmTOR and pS6K","U87MG cells [2]; U87MG cells, ~640 ng/mL, by 30 min",most significant reduction
same,pAkt and pS6K signaling at the lowest concentration,"U87MG cells [2]; U87MG, SEMA3F 200 ng/ml, 30 minutes",inhibits pAkt and pS6K signaling
same,stress fiber formation in mTOR overexpressing cells,"U87MG cells [3]; U87MG cells transfected with mTOR overexpression construct, SEMA3F 640 ng/ml, 30 minutes",minimal effects on stress fiber formation
same,stress fiber formation and cytoskeletal arrangement,"U87MG cells [3]; U87MG cells, SEMA3F 640 ng/ml, rapamycin 10 nM or Torin 1 10 nM, 30 minutes, vs untreated",markedly inhibits stress fiber formation and cytoskeletal arrangement
same,stress fiber formation in raptor-siRNA treated cells,"U87MG cells [3]; U87MG cells, siRNA 20 nM, SEMA3F 30 minutes",reduced stress fiber formation
same,inhibition of stress fiber formation,"U87MG cells [3]; pcDNA3.1 control vector transfected U87MG cells, SEMA3F 640 ng/ml, 30 minutes",90%
